Data published in patent US6864238.

Biological target: Bovine brain α/β tubulin (bovine) (UniProt P81947)
Assay: cell-based or functional assay

Sequence of Bovine brain α/β tubulin (bovine) (P81947 whole entry, chain 1 of 2): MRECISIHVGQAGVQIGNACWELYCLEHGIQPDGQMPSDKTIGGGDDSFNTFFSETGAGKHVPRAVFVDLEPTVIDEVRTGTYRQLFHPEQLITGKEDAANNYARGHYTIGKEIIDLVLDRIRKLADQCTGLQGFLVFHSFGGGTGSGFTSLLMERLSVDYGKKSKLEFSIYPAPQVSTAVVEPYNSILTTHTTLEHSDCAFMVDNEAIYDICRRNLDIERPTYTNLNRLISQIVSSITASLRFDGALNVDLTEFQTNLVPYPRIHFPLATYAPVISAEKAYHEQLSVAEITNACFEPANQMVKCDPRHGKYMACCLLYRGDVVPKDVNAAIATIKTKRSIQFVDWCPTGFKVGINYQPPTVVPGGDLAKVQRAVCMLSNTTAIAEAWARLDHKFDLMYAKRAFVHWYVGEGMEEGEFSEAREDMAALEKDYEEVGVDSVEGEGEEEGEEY
Sequence of Bovine brain α/β tubulin (bovine) (Q6B856 whole entry, chain 2 of 2, further chain): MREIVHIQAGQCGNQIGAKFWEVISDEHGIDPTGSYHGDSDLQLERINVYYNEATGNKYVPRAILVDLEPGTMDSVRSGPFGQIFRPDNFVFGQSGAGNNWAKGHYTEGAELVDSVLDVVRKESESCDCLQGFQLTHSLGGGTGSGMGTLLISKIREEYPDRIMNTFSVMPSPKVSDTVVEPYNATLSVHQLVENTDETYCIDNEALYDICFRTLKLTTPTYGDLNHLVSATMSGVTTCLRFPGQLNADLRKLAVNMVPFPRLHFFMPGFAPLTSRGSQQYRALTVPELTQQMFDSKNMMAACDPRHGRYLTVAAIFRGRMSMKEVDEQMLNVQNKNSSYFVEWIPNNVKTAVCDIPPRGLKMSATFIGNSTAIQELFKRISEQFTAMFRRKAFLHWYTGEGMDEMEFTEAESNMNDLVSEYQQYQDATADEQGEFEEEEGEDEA

For GST-PN2-2 (from UniProt Q9HC77 191-310), the distribution of tubulin in supernatant and pellet, in vitro microtubule sedimentation assay (15 µM tubulin) was 40 µM.
